Results from PMC5216073.

Tests used:
[1] = biological target: CtYpt7 wild type (Chaetomium thermophilum Ypt7) (Chaetomium thermophilum)
[2] = biological target: CtYpt7-K38A (Chaetomium thermophilum)
[3] = biological target: CtYpt7-F33A (Chaetomium thermophilum)

Work on “CtMC1core complex (CtMon1 195-355 with CtCcz1 1-249), both expression tags retained, as used in the GEF assay” yielded a kcat/KM of MC1-stimulated exchange of MANT-GDP for GTP on Ypt7 (fluorescence GEF assay, 0-2.0 μM CtMC1core, 25 °C) [1] of 23000 M⁻¹ s⁻¹, a kcat/KM of MC1-stimulated nucleotide exchange (fluorescence GEF assay, rates against CtMC1core concentration) [2] of 2600 M⁻¹ s⁻¹ and a kcat/KM of MC1-stimulated nucleotide exchange (fluorescence GEF assay, rates against CtMC1core concentration) [3] of 35000 M⁻¹ s⁻¹.
